Consider 21 molecules from patent publication US20030186281A1, “Modified tetracycline repressor protein compositions and methods of use” (priority 2001, published 2003).

B1: TetRrev29/25: revTetR(BD) G21- I22- E23- G24S (protein)
chain: MSRLDKSKVINSALELLNEVSLTTRKLAQKLGVEQPTLYWHVKNKRALLDALAVEILARHHDYSLPAAGESWQSFLRNNAMSFRRALLRYRDGAKVHLGTRPDEKQYDTVETQLRFMTENGFSLRDGLYAISAVSHFTLGAVLEQQEHTAALTDRPAAPDENLPPLLREALQIMDSDDGEQAFLHGLESLIRGFEVQLTALLQIV
modifications: Modified tetracycline repressor
notes: revTetR(BD) G21- I22- E23- G24S
B2: TetRrev28/16: revTetR(BD) L14L E15A L17G L25V (protein)
chain: MSRLDKSKVINSALALGNEVGIEGVTTRKLAQKLGVEQPTLYWHVKNKRALLDALAVEILARHHDYSLPAAGESWQSFLRNNAMSFRRALLRYRDGAKVHLGTRPDEKQYDTVETQLRFMTENGFSLRDGLYAISAVSHFTLGAVLEQQEHTAALTDRPAAPDENLPPLLREALQIMDSDDGEQAFLHGLESLIRGFEVQLTALLQIV
modifications: Modified tetracycline repressor
notes: revTetR(BD) L14L E15A L17G L25V
B3: TetRrev28/40: revTetR(BD) L14S N18Y I22F L25L (protein)
chain: B2 chain with L14S, A15E, G17L, N18Y, I22F, V25L
modifications: Modified tetracycline repressor
notes: revTetR(BD) L14S N18Y I22F L25L
B4: TetRrevAtc4-1: revTetR(BD) A50S D53F A56G V57I H63Q (protein)
chain: B2 chain with A15E, G17L, V25L, A50S, D53F, A56G, V57I, H63Q
modifications: Modified tetracycline repressor
notes: revTetR(BD) A50S D53F A56G V57I H63Q
B5: TetRrev28/36: revTetR(BD) N18I E19G V20G E23V (protein)
chain: B2 chain with A15E, G17L, N18I, E19G, V20G, E23V, V25L
modifications: Modified tetracycline repressor
notes: revTetR(BD) N18I E19G V20G E23V
B6: TetRrev29/52: revTetR(BD) L14V L17V N18K V20V G24G (protein)
chain: B2 chain with L14V, A15E, G17V, N18K, V25L
modifications: Modified tetracycline repressor
notes: revTetR(BD) L14V L17V N18K V20V G24G
B7: TetRrev28/46: revTetR(BD) A13A V20G G21R I22N G24G (protein)
chain: B2 chain with A15E, G17L, V20G, G21R, I22N, V25L
modifications: Modified tetracycline repressor
notes: revTetR(BD) A13A V20G G21R I22N G24G
B8: TetRrev28/27: revTetR(BD) L17G I22M (protein)
chain: B2 chain with A15E, I22M, V25L
modifications: Modified tetracycline repressor
notes: revTetR(BD) L17G I22M
B9: TetRrev29/17: revTetR(BD) L17S E23D (protein)
chain: B2 chain with A15E, G17S, E23D, V25L
modifications: Modified tetracycline repressor
notes: revTetR(BD) L17S E23D
B10: TetRrev29/27: revTetR(BD) L14E V20G (protein)
chain: B2 chain with L14E, A15E, G17L, V20G, V25L
modifications: Modified tetracycline repressor
notes: revTetR(BD) L14E V20G
B11: TetRrev28/23: revTetR(BD) A13A L14S N18K E23V (protein)
chain: B2 chain with L14S, A15E, G17L, N18K, E23V, V25L
modifications: Modified tetracycline repressor
notes: revTetR(BD) A13A L14S N18K E23V
B12: TetRrev29/24: revTetR(BD) E15V L17F N18Y I22M E23K (protein)
chain: B2 chain with A15V, G17F, N18Y, I22M, E23K, V25L
modifications: Modified tetracycline repressor
notes: revTetR(BD) E15V L17F N18Y I22M E23K
B13: TetRrev28/30: revTetR(BD) V20G G21A I22I E23G (protein)
chain: B2 chain with A15E, G17L, V20G, G21A, E23G, V25L
modifications: Modified tetracycline repressor
notes: revTetR(BD) V20G G21A I22I E23G
B14: TetRrev28/49: revTetR(BD) N18Y V20D I22T (protein)
chain: B2 chain with A15E, G17L, N18Y, E19D, I22T, V25L
modifications: Modified tetracycline repressor
notes: revTetR(BD) N18Y V20D I22T
B15: TetRrev29/42: revTetR(BD) E19D G96R (protein)
chain: B2 chain with A15D, G17L, V25L, G96R
modifications: Modified tetracycline repressor
notes: revTetR(BD) E19D G96R
B16: TetRrev28/26: revTetR(BD) L14T N18Y G21G I22F (protein)
chain: B2 chain with L14T, A15E, G17L, N18Y, I22F, V25L
modifications: Modified tetracycline repressor
notes: revTetR(BD) L14T N18Y G21G I22F
B17: TetRrev28/41: revTetR(BD) L17L N18D V20R I22N (protein)
chain: B2 chain with A15E, G17L, N18D, V20R, I22N, V25L
modifications: Modified tetracycline repressor
notes: revTetR(BD) L17L N18D V20R I22N
B18: TetRrev28/48: revTetR(BD) N18Y V20D I22T W43S (protein)
chain: B2 chain with A15E, G17L, N18Y, V20D, I22T, V25L, W43S
modifications: Modified tetracycline repressor
notes: revTetR(BD) N18Y V20D I22T W43S
B19: TetRrev28/31: revTetR(BD) A13A V20G G21R I22N G24G (protein)
chain: B2 chain with A15E, G17L, V20G, G21R, I22N, V25L
modifications: Modified tetracycline repressor
notes: as for B7
B20: TetRrev29/9: revTetR(BD) L17V N18Y G21G I22T (protein)
chain: B2 chain with A15E, G17V, N18Y, I22T, V25L
modifications: Modified tetracycline repressor
notes: revTetR(BD) L17V N18Y G21G I22T
B21: TetRrev29/35: revTetR(BD) L17S E23D (protein)
chain: B2 chain with L14E, A15E, G17S, V20G, E23D, V25L
modifications: Modified tetracycline repressor
notes: revTetR(BD) L17S E23D

Residue numbers refer to the chain shown, from its start. Names may count otherwise.

The first series deals with tet operator sequence. Briefly: β-galactosidase activity of a tetracycline-regulated promoter in transformed E. coli with revTetR, in the presence and absence of anhydrotetracycline (atc). The series is classed as cell-based, Escherichia coli. To be noted: RevTetR isolate cultured in the absence of anhydrotetracycline (ATC). Put shortly:
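TetR(BD) chimera mutants (TetR(B) residues 1–50, TetR(D) 51–208) expressed in E. coli regulating a tet operator-controlled lacZ. β-Galactosidase measured in Miller units at 28 °C and 37 °C with and without anhydrotetracycline; reported as percent of maximal expression without Tet repressor.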
As for B1, the “β-Galactosidase Activity, Cultured Without ATC” value was determined as 92.9327.

Regarding B2, the “β-Galactosidase Activity, Cultured Without ATC” value worked out at 96.3269.

As to B3, the “β-Galactosidase Activity, Cultured Without ATC” value was 91 .691.

As for B4, the “β-Galactosidase Activity, Cultured Without ATC” value turned out to be 100.076.

Turning to B5, the “β-Galactosidase Activity, Cultured Without ATC” value turned out to be 65.5335.

As for B6, the “β-Galactosidase Activity, Cultured Without ATC” value was 48.4964.

As for B7, the “β-Galactosidase Activity, Cultured Without ATC” value was determined as 95.9627.

For the molecule B8, the “β-Galactosidase Activity, Cultured Without ATC” value is recorded as 95.0152.

Turning to B9, the “β-Galactosidase Activity, Cultured Without ATC” value is given as 44.6409.

Consider B10, for which the “β-Galactosidase Activity, Cultured Without ATC” value is given as 82.7579.

On to B11, for which the “β-Galactosidase Activity, Cultured Without ATC” value is 92.2055.

Consider B12, for which the “β-Galactosidase Activity, Cultured Without ATC” value turned out to be 85.5708.

For the molecule B13, the “β-Galactosidase Activity, Cultured Without ATC” value is on record as 55.1783.

Regarding B14, the “β-Galactosidase Activity, Cultured Without ATC” value is 62.5137.

B15: the “β-Galactosidase Activity, Cultured Without ATC” value turned out to be 96.187.

As to B16, the “β-Galactosidase Activity, Cultured Without ATC” value came to 89.3918.

For the molecule B17, the “β-Galactosidase Activity, Cultured Without ATC” value amounted to 15.4643.

For the molecule B18, the “β-Galactosidase Activity, Cultured Without ATC” value was found to be 99.3107.

As to B19, the “β-Galactosidase Activity, Cultured Without ATC” value is 99.8749.

As to B20, the “β-Galactosidase Activity, Cultured Without ATC” value was found to be 74.4357.

With B21, the “β-Galactosidase Activity, Cultured Without ATC” value amounted to 58.0891.

Still in this series, the particulars now being: RevTetR isolate cultured in the presence of anhydrotetracycline (ATC).
With B1, the “β-Galactosidase Activity, Cultured With ATC” value is on record as 3.112.

As to B2, the “β-Galactosidase Activity, Cultured With ATC” value was determined as 0.9453.

In the case of B3, the “β-Galactosidase Activity, Cultured With ATC” value was 3.4834.

Consider B4, for which the “β-Galactosidase Activity, Cultured With ATC” value stood at 6.9011.

As for B5, the “β-Galactosidase Activity, Cultured With ATC” value came out at 1.0579.

As to B6, the “β-Galactosidase Activity, Cultured With ATC” value stood at 3.3035.

Regarding B7, the “β-Galactosidase Activity, Cultured With ATC” value amounted to 1.1482.

For the molecule B8, the “β-Galactosidase Activity, Cultured With ATC” value is reported as 1.6907.

As to B9, the “β-Galactosidase Activity, Cultured With ATC” value was found to be 1.7738.

As for B10, the “β-Galactosidase Activity, Cultured With ATC” value came out at 9.453.

B11: the “β-Galactosidase Activity, Cultured With ATC” value worked out at 2.9867.

For B12, the “β-Galactosidase Activity, Cultured With ATC” value worked out at 7.9819.

As for B13, the “β-Galactosidase Activity, Cultured With ATC” value came out at 3.7384.

Turning to B14, the “β-Galactosidase Activity, Cultured With ATC” value was determined as 8.2716.

For the molecule B15, the “β-Galactosidase Activity, Cultured With ATC” value was found to be 11.861.

As to B16, the “β-Galactosidase Activity, Cultured With ATC” value was 3.8006.

Take B17: the “β-Galactosidase Activity, Cultured With ATC” value came to 5.6333.

Turning to B18, the “β-Galactosidase Activity, Cultured With ATC” value is 1.1587.

On to B19, for which the “β-Galactosidase Activity, Cultured With ATC” value stood at 1.1121.

Take B20: the “β-Galactosidase Activity, Cultured With ATC” value was 11.772.

As to B21, the “β-Galactosidase Activity, Cultured With ATC” value is recorded as 2.1051.
